Test results as given in paper PMC4513872.

Target: C-Intein_C-Cas9_v1 (Nostoc punctiforme | Streptococcus pyogenes) (UniProt Q99ZW2)

percentage of indels at the endogenous Fus locus in Neuro-2a cells (T7 endonuclease I assay) after transfection of both moieties; wild-type SpCas9 gave 23.1%: 22.7%
Substance: N-Cas9_N-Intein_v1 (from UniProt Q99ZW2 1-573)
